From publication PMC12427801, “Deciphering α-L-Fucosidase Activity Contribution in Human and Mouse: Tissue α-L-Fucosidase FUCA1 Meets Plasma α-L-Fucosidase FUCA2” (Cells, 2025)

Target: the molecule itself
Assay: SEC; Superdex 200 Increase 10/300 GL, McIlvaine buffer pH 4.6, 0.3 mL/min; purified protein; fractions tested by 4-MUF fucosidase activity (FUCA1) or H6-tag western blot (FUCA2-H6)

B1: H6-tagged human tissue α-L-fucosidase 1 (FUCA1-H6) (enzyme, UniProt P04066 32-466, looked up)
chain: QPPRRYTPDWPSLDSRPLPAWFDEAKFGVFIHWGVFSVPAWGSEWFWWHWQGEGRPQYQRFMRDNYPPGFSYADFGPQFTARFFHPEEWADLFQAAGAKYVVLTTKHHEGFTNWPSPVSWNWNSKDVGPHRDLVGELGTALRKRNIRYGLYHSLLEWFHPLYLLDKKNGFKTQHFVSAKTMPELYDLVNSYKPDLIWSDGEWECPDTYWNSTNFLSWLYNDSPVKDEVVVNDRWGQNCSCHHGGYYNCEDKFKPQSLPDHKWEMCTSIDKFSWGYRRDMALSDVTEESEIISELVQTVSLGGNYLLNIGPTKDGLIVPIFQERLLAVGKWLSINGEAIYASKPWRVQWEKNTTSVWYTSKGSAVYAIFLHWPENGVLNLESPITTSTTKITMLGIQGDLKWSTDPDKGLFISLPQLPPSAVPAEFAWTIKLTGVK
notes: human tissue α-L-fucosidase FUCA1; N-glycosylated; also called H6-tagged FUCA1; H6-tagged human fucosidase; source: HT1080 cells, stably expressing, conditioned medium, purified (Ni-NTA)
B1: binds.

B2: untagged human tissue α-L-fucosidase 1 (FUCA1) (enzyme, UniProt P04066 32-466, looked up)
chain: B1 chain
notes: human tissue α-L-fucosidase FUCA1; untagged, secreted into the medium; N-glycosylated; also called untagged FUCA1; hFUCA1; source: CHO-K1 cells, stably expressing, conditioned medium, purified (ammonium sulfate precipitation, strong cation exchange)
B2: binds.
